The values below come from patent publication US20240189442A1 (ALLYGEN GROUP, published 2024).

No end group written: not given here.

This experiment has as its target T1, Ab2B.
T1 construct: The variable domains are the same in both; also called antibody Ab2B
Briefly: Biacore; Ab2B captured on anti-human Fab chip, peptide as analyte. The protocol:
Anti-human Fab was ligated to Biacore chips at pH 4.5. […] TBPs were flowed through the chip as analytes at 30 μL/min. 10 mM glycine at pH 1.5 was used for regeneration of the chip. Conditions were optimized as needed.
On the technique in general: In SPR one partner is held on a chip, and binding of the other changes the refractive index at the surface.

T1 sequence (heavy, as listed by the source, chain 1 of 2): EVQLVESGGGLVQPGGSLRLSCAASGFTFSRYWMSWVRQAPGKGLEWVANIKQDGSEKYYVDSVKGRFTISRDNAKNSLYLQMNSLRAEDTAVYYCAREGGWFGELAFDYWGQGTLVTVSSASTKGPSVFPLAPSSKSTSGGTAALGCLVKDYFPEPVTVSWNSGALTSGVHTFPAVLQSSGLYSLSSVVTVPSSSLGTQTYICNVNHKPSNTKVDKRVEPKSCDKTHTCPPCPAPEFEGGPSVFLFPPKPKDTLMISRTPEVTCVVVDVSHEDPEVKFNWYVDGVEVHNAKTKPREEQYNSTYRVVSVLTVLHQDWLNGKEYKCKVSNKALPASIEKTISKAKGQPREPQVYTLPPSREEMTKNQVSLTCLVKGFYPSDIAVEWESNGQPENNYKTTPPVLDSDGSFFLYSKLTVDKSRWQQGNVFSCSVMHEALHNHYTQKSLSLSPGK
T1 sequence (light, as listed by the source, chain 2 of 2): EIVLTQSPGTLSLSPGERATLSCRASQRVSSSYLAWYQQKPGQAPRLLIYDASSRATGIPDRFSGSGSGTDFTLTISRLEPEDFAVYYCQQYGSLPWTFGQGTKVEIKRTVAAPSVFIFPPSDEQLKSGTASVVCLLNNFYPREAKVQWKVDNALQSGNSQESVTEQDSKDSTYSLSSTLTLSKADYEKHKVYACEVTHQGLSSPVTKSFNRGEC

In the case of {NH2‑(PEG)12}-RSQSRSRYYRQRQRSRRRRRRS (also called TBPA) [SEQ ID NO: 151], the binding result is given as “no binding (tested: 50.0~0.8 nM analyte range)”.
